# US20100297101A1 (Scripps Research, published 2010)
# Bridges are numbered along the chain shown (N, C = ends). Where no end group is shown, it is not given here.
# What was measured:
# [1] = target: human integrin αIIbβ3 (purified, Enzyme Research Laboratories) (human) (UniProt P08514); test: competitive ELISA: inhibition of biotinylated human fibrinogen binding to immobilised human integrin αIIbβ3
# [2] = target: native integrin αIIbβ3 expressed on the surface of human platelets (human) (UniProt P08514); test: cell-based or functional assay
# [3] = target: T1, human integrin αIIbβ3 (purified, Enzyme Research Laboratories) (human, UniProt P08514 32-1039; P05106 27-788); test: competitive ELISA: inhibition of biotinylated fibrinogen binding to immobilised integrin αIIbβ3
# T1 construct: Bought protein, coated on ELISA plates or used in solution; also called integrin αIIββ3; GPIIb/IIIa
# Fab abciximab (ReoPro), sequence (VH): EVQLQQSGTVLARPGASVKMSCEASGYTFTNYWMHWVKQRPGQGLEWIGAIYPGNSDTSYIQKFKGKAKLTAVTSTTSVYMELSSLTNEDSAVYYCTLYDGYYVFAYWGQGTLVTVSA
# Fab abciximab (ReoPro), sequence (VL): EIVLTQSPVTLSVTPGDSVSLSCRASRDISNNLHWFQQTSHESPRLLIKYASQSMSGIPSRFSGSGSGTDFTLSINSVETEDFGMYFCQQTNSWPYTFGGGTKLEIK
Molecule,IC50 [1],"EC50, required concentration for 50% inhibition in a human platelet aggregation assay [2]",IC50 [3]
Fab abciximab (ReoPro),90 nM,45 nM,
VWCRADRRC (disulfide 3-9 (inferred); not fully specified) [cyclic peptide VWCRADRRC],,,1200 nM

# Other lines, results leading:
IC50 [1],"EC50, required concentration for 50% inhibition in a human platelet aggregation assay [2]",IC50 [3],Molecule
,,4200 nM,VWCRADKRC (disulfide 3-9 (inferred)) [cyclic peptide VWCRADKRC]
,,11000 nM,"VVCRADRRC (disulfide 3-9 (inferred), Synthetic nonapeptide (Peptron)) [cyclic peptide VVCRADRRC]"
